Laboratory results: patent publication US20240415886A1 (published 2024)

Molecular target: T1, p53 wild type peptide on HLA-A*02:01 (human)
T1 peptide: HMTEVVRRC
Test: activation reporter or marker

binding result: no recognition
B1: p53R175H peptide specific TCR (the inventive TCR) (TCR, V domains shown)
Valpha: GIQVEQSPPDLILQEGANSTLRCNFSDSVNNLQWFHQNPWGQLINLFYIPSGTKQNGRLSATTVATERYSLLYISSSQTTDSGVYFCAVNQAGTALIFGKGTTLSVSS
Vbeta: EPEVTQTPSHQVTQMGQEVILRCVPISNHLYFYWYRQILGQKVEFLVSFYNNEISEKSEIFDDQFSVERPDGSNFTLKIRSTKLEDSAMYFCASMGTGDEAFFGQGTRLTVV
